Measurements reported in PMC9896810.
Values belong to the binder of their own block, whether it stands above or below them.

Legend:
GST-CrkL-SH3N [1] = assay: pull-down; settings: chain shown with the change; PD with GST-CrkL-SH3N, C3G detected by western blot (WB:C3G); parent: 1.0
GST-CrkL-SH3N [2] = assay: pull-down; settings: chain shown with the change, PD with GST-CrkL-SH3N, C3G detected by western blot (WB:C3G), parent: 1.0
C3G-AAPA (human), Q13905 [3] = assay: ITC; single-PRM mutants of C3G in the cell titrated with full-length CrkL or CrkL-SH3N; 25 °C; 1:1 model in SEDPHAT; N is the competent fraction of C3G
C3G-AAAP (human), Q13905 = assay: as above
C3G-AAPA (human), Q13905 [4] = molecular target: C3G-AAPA (human), Q13905
[5] = molecular target: Src-phosphorylated C3G-AAAP (pC3G-AAAP) (human), Q13905
[6] = molecular target: Src-phosphorylated C3G-AAPP (pC3G-AAPP) (human), Q13905
[7] = molecular target: Src-phosphorylated C3G-AAPA (pC3G-AAPA) (human), Q13905

B1: C3G (full-length, residues 4-1077), Q13905-1 P283A; P284A; L286A; P287A; K289A; P453A; P454A; L456A; P457A; K459A; P540A; P541A; L543A; P544A; K546A (protein)
chain: DSQRSHLSSFTMKLMDKFHSPKIKRTPSKKGKPAEVSVKIPEKPVNKEATDRFLPEGYPLPLDLEQQAVEFMSTSAVASRSQRQKNLSWLEEKEKEVVSALRYFKTIVDKMAIDKKVLEMLPGSASKVLEAILPLVQNDPRIQHSSALSSCYSRVYQSLANLIRWSDQVMLEGVNSEDKEMVTTVKGVIKAVLDGVKELVRLTIEKQGRPSPTSPVKPSSPASKPDGPAELPLTDREVEILNKTTGMSQSTELLPDATDEEVAPPKPPLPGIRVVDNSPAAAAAPAKRQSAPSPTRVAVVAPMSRATSGSSLPVGINRQDFDVDCYAQRRLSGGSHSYGGESPRLSPCSSIGKLSKSDEQLSSLDRDSGQCSRNTSCETLDHYDPDYEFLQQDLSNADQIPQQTAWNLSPLPESLGESGSPFLGPPFQLPLGGHPQPDGPLAPGQQTDTAAAAAEAKRRSAASQTADGSGCRVSYERHPSQYDNISGEDLQSTAPIPSVPYAPFAAILPFQHGGSSAPVEFVGDFTAPESTGDPEKAAPAAEAKNKHMLAYMQLLEDYSEPQPSMFYQTPQNEHIYQQKNKLLMEVYGFSDSFSGVDSVQELAPPPALPPKQRQLEPPAGKDGHPRDPSAVSGVPGKDSRDGSERAPKSPDALESAQSEEEVDELSLIDHNEIMSRLTLKQEGDDGPDVRGGSGDILLVHATETDRKDLVLYCEAFLTTYRTFISPEELIKKLQYRYEKFSPFADTFKKRVSKNTFFVLVRVVDELCLVELTEEILKLLMELVFRLVCNGELSLARVLRKNILDKVDQKKLLRCATSSQPLAARGVAARPGTLHDFHSHEIAEQLTLLDAELFYKIEIPEVLLWAKEQNEEKSPNLTQFTEHFNNMSYWVRSIIMLQEKAQDRERLLLKFIKIMKHLRKLNNFNSYLAILSALDSAPIRRLEWQKQTSEGLAEYCTLIDSSSSFRAYRAALSEVEPPCIPYLGLILQDLTFVHLGNPDYIDGKVNFSKRWQQFNILDSMRCFQQAHYDMRRNDDIINFFNDFSDHLAEEALWELSLKIKPRNITRRKTDREEKT
ratio to parent (GST-CrkL-SH3N [1]): 0.3 | ratio to parent (GST-CrkL-SH3N [2]; C3G-AAAP phosphorylated by Src (phospho AAAP)): 0.4 | ratio to parent (GST-CrkL-SH3N [2]): 0.4

B2: C3G (full-length, residues 4-1077), Q13905-1 P283A; P284A; L286A; P287A; K289A; P453A; P454A; L456A; P457A; K459A; P608A; P609A; L611A; P612A; K614A (protein)
chain: DSQRSHLSSFTMKLMDKFHSPKIKRTPSKKGKPAEVSVKIPEKPVNKEATDRFLPEGYPLPLDLEQQAVEFMSTSAVASRSQRQKNLSWLEEKEKEVVSALRYFKTIVDKMAIDKKVLEMLPGSASKVLEAILPLVQNDPRIQHSSALSSCYSRVYQSLANLIRWSDQVMLEGVNSEDKEMVTTVKGVIKAVLDGVKELVRLTIEKQGRPSPTSPVKPSSPASKPDGPAELPLTDREVEILNKTTGMSQSTELLPDATDEEVAPPKPPLPGIRVVDNSPAAAAAPAKRQSAPSPTRVAVVAPMSRATSGSSLPVGINRQDFDVDCYAQRRLSGGSHSYGGESPRLSPCSSIGKLSKSDEQLSSLDRDSGQCSRNTSCETLDHYDPDYEFLQQDLSNADQIPQQTAWNLSPLPESLGESGSPFLGPPFQLPLGGHPQPDGPLAPGQQTDTAAAAAEAKRRSAASQTADGSGCRVSYERHPSQYDNISGEDLQSTAPIPSVPYAPFAAILPFQHGGSSAPVEFVGDFTAPESTGDPEKPPPLPEKKNKHMLAYMQLLEDYSEPQPSMFYQTPQNEHIYQQKNKLLMEVYGFSDSFSGVDSVQELAPAAAAAPAQRQLEPPAGKDGHPRDPSAVSGVPGKDSRDGSERAPKSPDALESAQSEEEVDELSLIDHNEIMSRLTLKQEGDDGPDVRGGSGDILLVHATETDRKDLVLYCEAFLTTYRTFISPEELIKKLQYRYEKFSPFADTFKKRVSKNTFFVLVRVVDELCLVELTEEILKLLMELVFRLVCNGELSLARVLRKNILDKVDQKKLLRCATSSQPLAARGVAARPGTLHDFHSHEIAEQLTLLDAELFYKIEIPEVLLWAKEQNEEKSPNLTQFTEHFNNMSYWVRSIIMLQEKAQDRERLLLKFIKIMKHLRKLNNFNSYLAILSALDSAPIRRLEWQKQTSEGLAEYCTLIDSSSSFRAYRAALSEVEPPCIPYLGLILQDLTFVHLGNPDYIDGKVNFSKRWQQFNILDSMRCFQQAHYDMRRNDDIINFFNDFSDHLAEEALWELSLKIKPRNITRRKTDREEKT
ratio to parent (GST-CrkL-SH3N [2]; C3G-AAPA phosphorylated by Src (phospho AAPA)): 0.3

B3: C3G (full-length, residues 4-1077), Q13905-1 P283A; P284A; L286A; P287A; K289A; P453A; P454A; L456A; P457A; K459A; P540A; P541A; L543A; P544A; K546A; Y554H (protein)
chain: DSQRSHLSSFTMKLMDKFHSPKIKRTPSKKGKPAEVSVKIPEKPVNKEATDRFLPEGYPLPLDLEQQAVEFMSTSAVASRSQRQKNLSWLEEKEKEVVSALRYFKTIVDKMAIDKKVLEMLPGSASKVLEAILPLVQNDPRIQHSSALSSCYSRVYQSLANLIRWSDQVMLEGVNSEDKEMVTTVKGVIKAVLDGVKELVRLTIEKQGRPSPTSPVKPSSPASKPDGPAELPLTDREVEILNKTTGMSQSTELLPDATDEEVAPPKPPLPGIRVVDNSPAAAAAPAKRQSAPSPTRVAVVAPMSRATSGSSLPVGINRQDFDVDCYAQRRLSGGSHSYGGESPRLSPCSSIGKLSKSDEQLSSLDRDSGQCSRNTSCETLDHYDPDYEFLQQDLSNADQIPQQTAWNLSPLPESLGESGSPFLGPPFQLPLGGHPQPDGPLAPGQQTDTAAAAAEAKRRSAASQTADGSGCRVSYERHPSQYDNISGEDLQSTAPIPSVPYAPFAAILPFQHGGSSAPVEFVGDFTAPESTGDPEKAAPAAEAKNKHMLAHMQLLEDYSEPQPSMFYQTPQNEHIYQQKNKLLMEVYGFSDSFSGVDSVQELAPPPALPPKQRQLEPPAGKDGHPRDPSAVSGVPGKDSRDGSERAPKSPDALESAQSEEEVDELSLIDHNEIMSRLTLKQEGDDGPDVRGGSGDILLVHATETDRKDLVLYCEAFLTTYRTFISPEELIKKLQYRYEKFSPFADTFKKRVSKNTFFVLVRVVDELCLVELTEEILKLLMELVFRLVCNGELSLARVLRKNILDKVDQKKLLRCATSSQPLAARGVAARPGTLHDFHSHEIAEQLTLLDAELFYKIEIPEVLLWAKEQNEEKSPNLTQFTEHFNNMSYWVRSIIMLQEKAQDRERLLLKFIKIMKHLRKLNNFNSYLAILSALDSAPIRRLEWQKQTSEGLAEYCTLIDSSSSFRAYRAALSEVEPPCIPYLGLILQDLTFVHLGNPDYIDGKVNFSKRWQQFNILDSMRCFQQAHYDMRRNDDIINFFNDFSDHLAEEALWELSLKIKPRNITRRKTDREEKT
ratio to parent (GST-CrkL-SH3N [2]): 0.4

Next, values leading:

ratio to parent (GST-CrkL-SH3N [1]): 0.4
B4: C3G (full-length, residues 4-1077), Q13905-1 P283A; P284A; L286A; P287A; K289A; P540A; P541A; L543A; P544A; K546A; P608A; P609A; L611A; P612A; K614A (protein)
chain: DSQRSHLSSFTMKLMDKFHSPKIKRTPSKKGKPAEVSVKIPEKPVNKEATDRFLPEGYPLPLDLEQQAVEFMSTSAVASRSQRQKNLSWLEEKEKEVVSALRYFKTIVDKMAIDKKVLEMLPGSASKVLEAILPLVQNDPRIQHSSALSSCYSRVYQSLANLIRWSDQVMLEGVNSEDKEMVTTVKGVIKAVLDGVKELVRLTIEKQGRPSPTSPVKPSSPASKPDGPAELPLTDREVEILNKTTGMSQSTELLPDATDEEVAPPKPPLPGIRVVDNSPAAAAAPAKRQSAPSPTRVAVVAPMSRATSGSSLPVGINRQDFDVDCYAQRRLSGGSHSYGGESPRLSPCSSIGKLSKSDEQLSSLDRDSGQCSRNTSCETLDHYDPDYEFLQQDLSNADQIPQQTAWNLSPLPESLGESGSPFLGPPFQLPLGGHPQPDGPLAPGQQTDTPPALPEKKRRSAASQTADGSGCRVSYERHPSQYDNISGEDLQSTAPIPSVPYAPFAAILPFQHGGSSAPVEFVGDFTAPESTGDPEKAAPAAEAKNKHMLAYMQLLEDYSEPQPSMFYQTPQNEHIYQQKNKLLMEVYGFSDSFSGVDSVQELAPAAAAAPAQRQLEPPAGKDGHPRDPSAVSGVPGKDSRDGSERAPKSPDALESAQSEEEVDELSLIDHNEIMSRLTLKQEGDDGPDVRGGSGDILLVHATETDRKDLVLYCEAFLTTYRTFISPEELIKKLQYRYEKFSPFADTFKKRVSKNTFFVLVRVVDELCLVELTEEILKLLMELVFRLVCNGELSLARVLRKNILDKVDQKKLLRCATSSQPLAARGVAARPGTLHDFHSHEIAEQLTLLDAELFYKIEIPEVLLWAKEQNEEKSPNLTQFTEHFNNMSYWVRSIIMLQEKAQDRERLLLKFIKIMKHLRKLNNFNSYLAILSALDSAPIRRLEWQKQTSEGLAEYCTLIDSSSSFRAYRAALSEVEPPCIPYLGLILQDLTFVHLGNPDYIDGKVNFSKRWQQFNILDSMRCFQQAHYDMRRNDDIINFFNDFSDHLAEEALWELSLKIKPRNITRRKTDREEKT

Kd (C3G-AAPA (human), Q13905 [3]): 2 µM | stoichiometry N (C3G-AAPA (human), Q13905 [3]): 0.13 | Kd (C3G-AAAP (human), Q13905): 2 µM | stoichiometry N (C3G-AAAP (human), Q13905): 0.55 | AC50 of the dose-response activation of the GEF activity of C3G (1 µM) on Rap1b:mant-dGDP (C3G-AAPP (human), Q13905): 23.7 µM | kmax of the dose-response activation of the GEF activity of C3G (1 µM) on Rap1b:mant-dGDP (C3G-AAPP (human), Q13905): 13600 M⁻¹ s⁻¹ | AC50 of the dose-response activation of the GEF activity of C3G (1 µM) on Rap1b:mant-dGDP (C3G-AAPA (human), Q13905 [4]): 28.1 µM | kmax of the dose-response activation of the GEF activity of C3G (1 µM) on Rap1b:mant-dGDP (C3G-AAPA (human), Q13905 [4]): 9100 M⁻¹ s⁻¹ | AC50 of the dose-response activation of the GEF activity of pC3G (0.2 µM) on Rap1b:mant-dGDP; the text says that pC3G-AAAP was not stimulated by CrkL [5]: 0.6 µM | kmax of the dose-response activation of the GEF activity of pC3G (0.2 µM) on Rap1b:mant-dGDP; the text says that pC3G-AAAP was not stimulated by CrkL [5]: 0.0045 s^-1 µM^-1 | AC50 of the dose-response activation of the GEF activity of pC3G (0.2 µM) on Rap1b:mant-dGDP [6]: 2.2 µM | kmax of the dose-response activation of the GEF activity of pC3G (0.2 µM) on Rap1b:mant-dGDP [6]: 0.0357 s^-1 µM^-1 | AC50 of the dose-response activation of the GEF activity of pC3G (0.2 µM) on Rap1b:mant-dGDP [7]: 1.3 µM | kmax of the dose-response activation of the GEF activity of pC3G (0.2 µM) on Rap1b:mant-dGDP [7]: 0.0269 s^-1 µM^-1
B5: CrkL, full-length (human), P46109 1-303 (natural protein)
chain: MSSARFDSSDRSAWYMGPVSRQEAQTRLQGQRHGMFLVRDSSTCPGDYVLSVSENSRVSHYIINSLPNRRFKIGDQEFDHLPALLEFYKIHYLDTTTLIEPAPRYPSPPMGSVSAPNLPTAEDNLEYVRTLYDFPGNDAEDLPFKKGEILVIIEKPEEQWWSARNKDGRVGMIPVPYVEKLVRSSPHGKHGNRNSNSYGIPEPAHAYAQPQTTTPLPAVSGSPGAAITPLPSTQNGPVFAKAIQKRVPCAYDKTALALEVGDIVKVTRMNINGQWEGEVNGRKGLFPFTHVKIFDPQNPDENE

Kd (C3G-AAPA (human), Q13905 [3]): 3.5 µM | stoichiometry N (C3G-AAPA (human), Q13905 [3]): 0.2
B6: CrkL-SH3N (residues 125-182), P46109 125-182 (domain or fragment)
chain: LEYVRTLYDFPGNDAEDLPFKKGEILVIIEKPEEQWWSARNKDGRVGMIPVPYVEKLV
